We go through 21 variants from the RNAGym collection of RNA variant scans (doi:10.1073/pnas.2313332121).

B1: TPR t1 (parent)
chain: GACCAAUCUGCCCUCAGAGCUCGAGAACAUCUUCGGAUGCAGAGGAGGCAGGCUUCGGUGGCGCGAUAGCGCCAACGUCCUCAACCUCCAAUGCAUCCCACCACAUGAUGAUGCCUGAAGAGCCUUGGUUUUUUG

Variants of B1 are the subject of this data set. The data set can be described thus: polymerase ribozyme fitness, log enrichment relative to wild type (log ratio); higher = more active; in vitro selection for triplet polymerase activity. The procedure, abridged: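 A single round of triplicate in vitro selection, including frozen incubation at −7 °C, was applied to PCR-built, transcribed mutant libraries of each subunit of a heterodimeric triplet polymerase ribozyme. Illumina sequencing of input and output libraries retained genotypes with ≥10 input reads and ≥1 read per output. Fitness is the base-2 logarithm of genotype enrichment divided by wild-type enrichment, from inverse-variance-weighted replicate averages.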
As for GACCAAUCUGCCCUCAGAGCUCGAGAACAUCUUCGGAUGCAGAGGAGGCAGGCUUCGGUGGCGCGAUAGCGCCAACGUCCUCAACCUCCAAUGCAGCCCACCACAUGAUGAUGCCUGAAUAGCCUUGGUUUUUUG, the “polymerase ribozyme fitness (log ratio)” value is -0.269. The figure for GACCAAUCUGCACUCUGAGCUCGAGAACAUCUUCGGAUGCAGAGGAGGCAGGCUUAGGUGGCGCGAUAGCGCCAACGUCCUCAACCUCCAAUGCAUCCCACCACAUGAUGAUGCCUGAAGAGCCUUGGUUUUUUG is -3.74. The value for GACCAAUCUGCCUUCAGAGCUCGAGAACAUCUUCGGAUGCAUAGGAGGCAGGCUUUGGUGGCGCGAUAGCGCUAACGUCCUCAACCUCCAAUGCAUCCCACCACAUGAUGAUGGCUGAAGAGACUUGGUUUUUUG was -2.2.

In the case of GACCAAUCUGACCUCAGAGCUCGAGAACAUCUUCGGAUGCAGAGUAGGCAGGCUUCGGUGGCGCGAUAGCACCAACGUCCUCAACCUCCAAUGCAUCCCACCACAUGAUGAUGCCUGAAGCGCCUUGGUUUAUUG, the “polymerase ribozyme fitness (log ratio)” value is -0.447. With GACCAAUCUGCCCUCAGAGCUCGAGAACAUCUUCGGAUGCAGAGGAGGCAGUCUUCGGUAGCGCGAUAACGCCAACGUCCUAAACCUCCAAUGCAUCCCACUACAUGAUGAUGCCUGAAGAGGCUUGGUUUUUUG, the “polymerase ribozyme fitness (log ratio)” value is -6.73. The value for GACCAAUCUGCCCUCAGAGCUCGAGAACAUCUUCGGAUGCAGAGGGGGCAGGCUUCGGUGGCGCGAUAGCGCCAACGUCCUCAACCUCCAAUGCAUCCCACCACAUGAUUAUGCCAGAAGAGCCUUGGUUUUUUG was -4.29; that for GACCAAUCUGCCCUCAGAGCUCGAGAACAUCUUCGGAUGCAGAGGAGCCAGGCUUCGGUGGCGCGAUAGCGCCAACGUCCUCCACCUCCCAUGCAUCCCACCACAUGAUAAUGCCUGAAGAGCCUUGGUUUUUUG was -3.46.

Turning to GACCAAUCUGCCCUCAGAGCUCGAGAACAUCUUCGGAUGCAGAGGAGGCGGGCUUCGGUGGCGCGAUAGCGCCAUCGUCUACAACCUCCAAUGCAUCCCACCACAUGAUGAUGUCUGAAGAGCCUUGGUUUUCUG, the “polymerase ribozyme fitness (log ratio)” value is -4.62. The figure for GACCAAUCUGCCCUCAGAGCUCGAGAACAUCUUCGGAUGCAGAGGAGGCAGGCUUCGGUGGCGCGAUAGCGCCAACGUCCUCAACUUCCAAUGCAUCCCACCACAUGAUGAUGCCUGAAAAGCCUUGGUUUUUUG is 0.277; for GACCAAUCUGCCCUCAGAGCUCGAGAACAUCUUCGGAUGCAGAGGAGGCAGGCUUCGGUGGCGCGAUAGCGCCAACGUCCUCAUCCUCCAAUGCAUCCCACCACAUGAUGAUGCCUGAAGAGCCUUGGUUGUUUG it is -0.716; for GACCAAUCUGCCCUCAGAGCUCGAGAACAUCUUCGGAUGCAGAGGAGGCAGGCUUCGGUGGCGCGAUAGCGCUAACGUCCUCAACCUCCAAUGCAUCCCACCACAUGAUGAUGCCUGAGGAGCCUUGGUUUUUUG it is 1.13. The value for GACCAAUCUGCCCUCAGAGCUCGAGAUCAUCUUCGGAUGCAGAGGAGGCAGGCUUCGGUGGCGCGAUAGCGCCAACGUCCUCAACCUCCAAUGCAUCCCACCACAUGAUGAUGCCUGAAGAGCCUUAGUUUUUUG was -4.51; that for GAACAAUCUGCCCUCAGAGCUCGAGAACAUCUUCGGAUGCAGAGGAGGCAGGCUUCGGUGGCGCGAUAGCGCCAACGUCCUCCACCUCCAAUGCAUUCCACCACAUGAUAAUGCCUGAAGAGCCUUGGUUUUUUG was -3.93. As to GACCAAUCUGCCCUCAGAGCUCGAGAACAUCUUCGGAUGCAGAGGAGGCAGGCUUCGGUGGUGCGAUAGCGCCAACGUCCUCAACCUCCAAUCCAUCCCACCACUUGAUGAUGCCUGAAGAGCCUUGGUUUUUUG, the “polymerase ribozyme fitness (log ratio)” value was -3.5.

As to GACCAAUCUGCCCUCAGGGCUCGGGAACAUCUUUGGAUGCAGAGGAGGCAGGCUUCGGUGACGCGAUAGCGCCAACGUCCUCAACCUCCAAUGCAUCCCACCACAUGAUGUUGCCUGAAGAGCCUUGUUUUUUUU, the “polymerase ribozyme fitness (log ratio)” value was -6.04.

GACCAAUCUGCCCUCAGAGCUCGAGAACAUCUUCGGAUGCAGAGGAGGCAGGCUUCGGUGGCGCGAUAGCGCCAACGUCCUCAACCUCCAAUGCACCCCACUACAUGAUAAUGCCUGAAGAUCCUUGGUUUUUUG: the “polymerase ribozyme fitness (log ratio)” value was -6.13. The figure for GACCAUUCUGCCCUCAGAGCUGGAGUACAUCUUCGGAUGCAGAGGAGGCAGGCUUCGGUGGCGCGAUAGCGCCAACGUCCUCAACCUCCAAUGCAUCCCACCAUAUGAUGAUGCCUGAAGAGCCUUGGUUUUUUG is -4.49; for GACCAAUCUGCCCUCAGAGCUCGAGAACAUUUUCGGAUGCAGAGGAGGCAGGCUUCGGUGGCGCGAUAGCGCCAACGUCCUCAACCUCCAAUGCAUCCCACCACAUGAUAAUGCCUGAAGAGCCUUGGUUUUUUG it is -4.35. GACCAACCUGCCCCCAGAGCUCGAGAACGUCUUCGGAUGCAGAGGAGGCAGGCUUCGGUGGCGCGAUAGCCCCAACGUCCUCAACCUCCAAUGCAUCCCACCACAUGAUGAUUCCUGAAGAGCCUUGGUUUUUUG: the “polymerase ribozyme fitness (log ratio)” value was -4.94. The figure for GACCAAUCUGCCCUCAGAGCUCGAGAACAUCUUCGGAUGCAGAUGAAGCAGGCUUCGGUGGCCCGAUAGCGCCAACGUCCUCAACCUCCAAUGCAUCCCACCACAUGAUGAUGCCUGAAUAGCCUUGGUGUUUUG is -4.01.

On to GACCAAUCUGCCCUCAGAGCUGGAGAACAUCUUCGGAUGCAGAGGAGGCAGGCUUCGGUGGCGCGAUAGCGCCAACGUCCUCAACCUCCAAUGCACCCCACCACAUGAUGAUGCCUGAAGAGCCUUGGUUUUUUG, for which the “polymerase ribozyme fitness (log ratio)” value is -3.36.
